Source: patent publication US7932362B2, “Antibodies to NRIF3 proteins” (New York University, priority 1999, dated 2011)

B1: EnL: β3-endonexin long form, 170 amino acids, alternatively spliced product of the same gene as NRIF3 (protein)
chain: MPVKRSLKLDGLLEENSFDPSKITRKKSVITYSPTTGTCQMSLFASPTSSEEQKHRNGLSNEKRKKLNHPSLTESKESTTKDNDEFMMLLSKVEKLSEEIMEIMQNLSSIQALEGSRELENLIGISCASHFLKREMQKTKELMTKVNKQKLFEKSTGLPHKGQPQMSPQL
B2: EnS: β3-endonexin short form, 111 amino acids, identical to the first 111 residues of NRIF3 (protein)
chain: MPVKRSLKLDGLLEENSFDPSKITRKKSVITYSPTTGTCQMSLFASPTSSEEQKHRNGLSNEKRKKLNHPSLTESKESTTKDNDEFMMLLSKVEKLSEEIMEIMQNLSSIQ

Experiments:
B42-RAR LBD = assay: Yeast two-hybrid assay, LexA-NCD bait with prey B42-RAR LBD; format: cell-based, human; details: cognate ligand, FIG. 11
B42-RAR LBD, sequence (P10276 183-417 limits assumed): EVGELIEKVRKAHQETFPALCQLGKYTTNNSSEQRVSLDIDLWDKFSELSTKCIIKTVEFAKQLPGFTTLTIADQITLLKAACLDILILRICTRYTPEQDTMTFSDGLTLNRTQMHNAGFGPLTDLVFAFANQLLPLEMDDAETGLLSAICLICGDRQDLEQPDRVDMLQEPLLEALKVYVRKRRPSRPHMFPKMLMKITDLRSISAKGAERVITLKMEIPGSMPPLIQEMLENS
Method: The following receptor baits were used: LexA-cTRα LBD, LexA-hTRβ LBD, LexA-hRARα LBD, LexA-hRXRα LBD, and LexA-hGR LBD. The NRIF3 C-terminal domain (NCD) was fused in frame with the LexA DBD and examined for interaction with receptor LBDs using the following preys: B42-cTRα LBD, B42-hRARα LBD, and B42-hRXRα LBD expressed from pJG4-5. Yeast cells harboring appropriate plasmids were grown in selective media with Gal/Raf in the presence or absence of cognate ligand (1 μM T3 for TR, all trans or 9-cis RA for RAR, 9-cis RA for RXR, and 10 μM deoxycorticosterone for GR) overnight before β-galactosidase activity was assayed using o-Nitrophenyl β-D-Galactopyranoside as the substrate. β-galactosidase units are expressed as (O.D. 420 nm×1000)/(minutes of incubation×O.D. 600 nm of yeast suspension).
To construct the bait plasmid expressing LexA-NCD, a derivative of pEG202 (which contains a new polylinker) plasmid was digested with NcoI and XhoI and ligated to synthetic oligonucleotides that encode the last 16 amino acids of NRIF3 (residues 162-177). Similarly, mutant NCD was generated by using oligonucleotides that contain the designed mutations in the ligation reaction. All constructs were confirmed by sequence analysis. […]

endogenous RAR(s) = assay: Transfection study, CAT reporter in HeLa cells, endogenous RAR(s); format: cell-based, human; details: 1 μM, HeLa cells without receptor expression vector, FIG. 6A
Description: (§1) Transfection studies. Most reporters used in this study have been described previously, including IR-ΔMTV-CAT, DR4-ΔMTV-CAT, GH-TRE-tk-CAT, IR+3 (ERE)-ΔMTV-CAT (5, 25, 78). A DR1-ΔMTV-CAT reporter responsive to RXR was obtained from Ron Evans. A GRE/PRE-tk-CAT reporter was obtained from Gunther Schutz. The (IR)2-TATA-CAT was constructed in our laboratory by cloning two copies of the IR sequence (AGGTCA TGACCT) upstream of a TATA element derived from the tk promoter. A hVDR expression vector and the VDRE-ΔMTV-CAT containing the VDRE from the osteocalcin promoter were obtained from J. Wesley Pike. Vectors expressing cTRα, hRARα, hRXRα, rGR, hPR, and hER have been described previously (17, 25, 26, 50, 53, 81). The NRIF3 expression vector was constructed by cloning full length NRIF3 into a pExpress vector (25). Appropriate plasmids were transfected into HeLa cells by calcium phosphate co-precipitation using 25-100 ng of the receptors, 250-500 ng of the CAT reporters, and 750 ng of the NRIF3 or control pExpress vector. After transfection, cells were incubated at 37° C. (with or without cognate ligands) for 42 hours before being harvested. […] Relative CAT activity was determined as the percent acetylation of substrate per 30 μg of cell protein in a 15 hour incubation at 37° C. The results were calculated from duplicate or quadruplicate samples and the variation among samples was less than 10%.

cTRα = biological target: T1, cTRα (Gallus gallus, UniProt P04625); assay: Transfection study, CAT reporter in HeLa cells, TR-mediated transactivation; format: cell-based, chicken; details: IR-ΔMTV-CAT reporter, 1 μM T3, FIG. 5A
T1 sequence (P04625 1-408): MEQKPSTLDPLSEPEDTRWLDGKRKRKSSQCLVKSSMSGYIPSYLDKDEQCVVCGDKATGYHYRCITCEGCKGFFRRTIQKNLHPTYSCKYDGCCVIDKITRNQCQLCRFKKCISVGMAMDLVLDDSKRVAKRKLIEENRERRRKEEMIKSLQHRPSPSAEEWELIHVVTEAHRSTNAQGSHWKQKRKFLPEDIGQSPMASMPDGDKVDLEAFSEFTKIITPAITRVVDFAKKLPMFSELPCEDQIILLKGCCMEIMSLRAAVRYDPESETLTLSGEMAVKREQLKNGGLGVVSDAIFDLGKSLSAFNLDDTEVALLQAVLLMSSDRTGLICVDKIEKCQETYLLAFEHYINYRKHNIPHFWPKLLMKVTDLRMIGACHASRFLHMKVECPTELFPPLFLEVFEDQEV
Description: as §1

[1] = test system: receptor-mediated transcription; assay: Transfection studies with endonexins (data not shown); format: cell-based
Description: as §1

LexA-TR = LexA-TR (Gallus gallus, UniProt P04625); details: yeast two-hybrid, 1 μM T3, FIG. 8B
LexA-RXR = LexA-RXR (Homo sapiens, UniProt P19793); details: yeast two-hybrid, 1 μM 9-cis RA, FIG. 8B
LexA-RXR, sequence (P19793 227-462): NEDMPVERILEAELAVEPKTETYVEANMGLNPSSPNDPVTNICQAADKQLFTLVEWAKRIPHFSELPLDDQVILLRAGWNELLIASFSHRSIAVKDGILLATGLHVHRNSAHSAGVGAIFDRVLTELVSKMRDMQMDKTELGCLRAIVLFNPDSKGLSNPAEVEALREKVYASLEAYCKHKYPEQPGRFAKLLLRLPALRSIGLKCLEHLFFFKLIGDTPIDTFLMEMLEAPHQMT

Row | Molecule | effect on receptor-mediated transcription [1] | interaction with liganded TR (LexA-TR) | interaction with liganded RXR (LexA-RXR) | other results
1 | NCD: C-terminal domain of NRIF3, amino acids 162-177; docked as 17-residue peptide KASRHLDSYEFLKAILN (SEQ ID NO:7) (C-terminal peptide of NRIF3) | – | – | – | interaction with the LBD of RAR (B42-RAR LBD): interact efficiently
2 | C/C(=C\c1ccc(C(=O)O)cc1)c1ccc2c(c1)C(C)(C)CCC2(C)C [TTNPB] | – | – | – | activation of the IR-ΔMTV-CAT reporter by ligand (endogenous RAR(s)): activates
3 | CBP: reported co-activator for nuclear receptors, used as a control | – | – | – | enhancement of TR-mediated activation of the CAT reporter (cTRα): around 3 fold
4 | B1 | little effect | completely abolished | completely abolished | –
5 | B2 | little effect | completely abolished | completely abolished | –
